In the nanobody polyreactivity screen of Harvey et al. (2022):

Assay: yeast display, Sf9 membrane polyspecificity reagent, FACS + sequencing; frameworks hold sequencing errors
Method in brief: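 Galactose induction of a Saccharomyces cerevisiae BJ5465 synthetic nanobody display library ran 36–48 hours. The cells were then stained for 1 hour at 4 °C with 10% biotinylated, detergent-solubilized Sf9 membrane reagent, pulled down on streptavidin microbeads and FACS-sorted into low and high (top ~1%) gates on expression and reagent-binding fluorescence. Labels for polyreactivity follow the gate of origin.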

| Sequence | polyreactivity (PSR sort gate) |
| --- | --- |
| QVQLVDSGGGLVQAGGSLRLSCAASGRTISGYAMGWYRQAPGKERELVAAITSRGGRTYYADSVKGRFTISRDNAKNTVYLQMNSLKPEDTAVYYCAAYRRLTLYDYWGQGTQVTVSS | high polyreactivity |
| QVQLVDSGGGLVQAGGSLRLSCAASGRTIVYYAMGWYRQAPGKERELVAAIRSGGSTNYADSVKGRFTISRDNAKNTVYLQMNSLKPEDTAVYYCNAVHYYYYKGDYWGQGTQVTVSS | high polyreactivity |
| QVQLVDSGGGLVQAGGSLRLSCAASGRTLAFNAMGWYRQAPGKERELVAVIRNGTSTNYADSVKGRFTISRDNAKNTVYLQMNSLKPEDTGVYYCNVPYYLPSYLSGYDYWGQGTQVTVSS | low polyreactivity |
| QVQLVDSGGGLVQAGGSLRLSCAASGRTLAGYVMGWYRQAPGKERELVATISNGGSTYYADSVKGRFTISRDNAKNTVYLQMNSLKPEDTAVYYCNRYWYRKHSTDPPVRYRPVGYWGQGTQVTVSS | high polyreactivity |
| QVQLVDSGGGLVQAGGSLRLSCAASGRTLSFYGMGWYRQAPGKERELVAAISSSGSRTYYADSVKGRFTISRDNAKNTVYLQMNSLKPEDTAVYYCNALRIYHHYEYDYWGQGTQVTVSS | high polyreactivity |
| QVQLVDSGGGLVQAGGSLRLSCAASGSIFDANAMGWYRQAPGKERELVAAITFDSGSTHYADSVKGRFTISRDNAQNTVYLQMNSLKPEDTAVYYCAVRDFNSDYDYWGQGTQVTVSS | low polyreactivity |
| QVQLVDSGGGLVQAGGSLRLSCAASGSIFHFYAMGWYREATGKERELVAAITRGGGSTYYADSVKGRFTISRDNAKNTVYLQMNSLKPEDTAVYYCAAYKYYRYNYWGQGTQVTVSS | high polyreactivity |
| QVQLVDSGGGLVQAGGSLRLSCAASGSIFKTYAMGWYRQAPGKERELVATNTRRTGSTYYADSVKGRFTISRDNAMNSVYLQMNSLKPEDPAVYYCAAELYPSWSHTVFHGYNYWGQGTQVTVSS | high polyreactivity |
| QVQLVDSGGGLVQAGGSLRLSCAASGSIFPYNDMGWYRKAPGKERELVARITNGGSTNYADSVKGRFTISRDNAKNTVYLQMNSLKPEDTAVYYCNKDGTQEFAPDGHEYWGQCTQVTVSS | low polyreactivity |
| QVQLVDSGGGLVQAGGSLRLSCAASGSIFYHNAMGWSRQAPGKERELVAAITWSGSTTYYADSVKGRFTISRDNAKNTVYLQMNRLKPEDTAVYYCAVDIYYYSNVHYYYWGQGTQVTVSS | low polyreactivity |
| QVQLVDSGGGLVQAGGSLRLSCAASGSIITYYAMGWYRQAPGKERELVAGISRRGASTYYADSVKGRFTISRDNAKNTVYLQMNSLNPEDTEVYYCAAVPYYYYGFDYWGQGTQVTVSS | high polyreactivity |
| QVQLVDSGGGLVQAGGSLRLSCAASGSILGAKDMGWFRQAPGKERELVATITWNGGGTSYADSVKGRFTISRDNAKNTVYLQMNSLKAEDTAVYYFNALGRDSQALYRYRLVGEFGYWGQGSQVTVSS | low polyreactivity |
| QVQLVDSGGGLVQAGGSLRLSCAASGSILYHYAMGWYRQAPGKERELVAGISWRGGSTYYADSVKGRFTISRDNAKNTVYLQMNSLKPEATAVYYCATQRYPYRFYAFQYYYWGQGTQVTVSS | low polyreactivity |
| QVQLVDSGGGLVQAGGSLRLSCAASGSNITRKAMGWYRQAPGKERELVAAIRKIGGRTYYADSVKGRFTISRDNAKNTVYLQMNSLKPEDTAVYYCAAGGSYYRDDYWGQGTQVTVSS | low polyreactivity |
| QVQLVDSGGGLVQAGGSLRLSCAASGSTFAFYAMVWSRQAPGKERELVAANSSNGVSTYYADSVKGRFTISRDNAKNTVYLQMKSLKPEDTAVYYCARDVYASPRLYTSRYNYWGQGTQVTVSS | low polyreactivity |
| QVQLVDSGGGLVQAGGSLRLSCAASGSTFAPYAMGWSRQAPGKERELVAAISWGGGSTYYADSVKGRFTISRDNAKNTVYLQMNSLKPEDTAVYYCAADYAEYSAEWYEDWGQGTQVTVSS | high polyreactivity |

| Sequence | polyreactivity (PSR sort gate) |
| --- | --- |
| QVQLVDSGGGLVQAGGSLRLSCAASGSTFFFNDLGWSRQAPGKESEFVAGISSSGGSTHYADSVKGRFTISRDKAKNTVYFQMNSLKPEDTAVYYCNTLRNWYYQFDFNYWGQGTQVTVSS | low polyreactivity |
| QVQLVDSGGGLVQAGGSLRLSCAASGSTFGGNAMGWYRQAPGKERELVAAITGSGGRTFYADSVKGRFTISRDNAKNTVYLQMNSLNPEDTAVYYCAADSYIYSVNYWGQGTQLTVSS | low polyreactivity |
| QVQLVDSGGGLVQAGGSLRLSCAASGSTFIYYAMGWYRQAPGKEREFVAAISYRGGSTYYADSVKGRFTISRDNAKNTVYLQMNSLKPEDTAVYYCAASYRKWNDYWGQGTQVTVSS | high polyreactivity |
| QVQLVDSGGGLVQAGGSLRLSCAASGSTFPDNAMGWYRQAPGKERALVAAIRWTGGSTYYADSVKGRFTISRDNAKNTVYLQMNSLKPEDTAVYYCNTAYTVSWRSPYDYWGQGTQVTVSS | high polyreactivity |
| QVQLVDSGGGLVQAGGSLRLSCAASGSTFRRYAMGWYRQAPGKERELVAAITTADITNYADSVKGRFTISRDNAKNTVYLQMNSLKPEDTAVYYCAAPVAYRGSRNFIYRYNYWGQGTQVTVSS | high polyreactivity |
| QVQLVDSGGGLVQAGGSLRLSCAASGSTFRVNAMGWYRQAPGKERELGAAISGSGSGTYYADSVKGRFTISRDNAKNTVYLLMNSLKPEDTAVYYCAKVPKSRGYVGGMDYWGQGTQVTVSS | low polyreactivity |
| QVQLVDSGGGLVQAGGSLRLSCAASGSTFTTNGMGGYRQAPGKERELVAAITRGGSTNYADSVKGRFTISRDNAKNTVFLQMNSLKPEDTAVYYCAAQNYWYYPRRFDYWGQGTQVTVSS | high polyreactivity |
| QVQLVDSGGGLVQAGGSLRLSCAASGSTFWFYAMGWYRQAPGNERELVAVISNSGSTYYADSVKGRFRISRDNAKNTVYLQMNSLKPEDTAVYYCNKDGGGDSYWYDYWGQGTQVTVSS | low polyreactivity |
| QVQLVDSGGGLVQAGGSLRLSCAASGSTFYFYAMGWYRQAPGKQRELVAAITWTDGDTYYADSVKGRFTISRDIAKNTVYLQMNSLKPEDTAVYYCATDSFWYEYDYWGQGTQVTVSS | high polyreactivity |
| QVQLVDSGGGLVQAGGSLRLSCAASGSTFYGYAMGWYRQAPGKERELVATISSSGAITYYADSVKWRFTISRDNAKNTVYLQMNRLKPEDPAVYYCARTGSLLSQVWYNYWGQGTQVTVSS | low polyreactivity |
| QVQLVDSGGGLVQAGGSLRLSCAASGSTSLKNAMGWSRQAPGKERELVAAISSGGSTYYADSVKGRFTISRDNAKNTVYLLMNSLKPEDTAVYYCAAKYLRGLGYWGQGTQVTVSS | high polyreactivity |
| QVQLVDSGGGLVQAGGSLRLSCAASGSTVAYYAMGLYRQPTVKERELVAAITRGGSTYYADSVKGRFTISRDNAMNTVYLHLNSLKPEDTAVYYCSAEFVVQYYVYGYTLGYDYWGQGTQVTVSS | high polyreactivity |
| QVQLVDSGGGLVQAGGSLRLSCAASGYTFDWYNRGWYRQAPGKERELVAAISASGVRTYYADSVKGRFTISRDNAKNTVYFQMNSLKPEDTAVYYCNRVYSTSRITQYEFDYWGQGTQVTVSS | low polyreactivity |
| QVQLVDSGGGLVQAGGSLRLSCAASGYTFEIYAIRWYRQAPGKERELVAAITRSGDSTYYADSVKGRFTISRDNSKNTVYLQMNSLKPEDTAVYDCNADYPGQYDSWGQGTQVTVSS | low polyreactivity |
| QVQLVDSGGGLVQAGGSLRLSCASSGNTFAGNARGWYRQAPGTERELVAAISRSGVTTRYADSVKGRFTISRDNAKNTVYLQMNSLKQEDTAVYYCNADPRLRQTRDYWGHGTQVTVSS | high polyreactivity |
| QVQLVDSGGGLVQAGGSLRLSCASSGSTFVLYAMGWYRQAPGKERELVAAITWSGDDTYYADSVKGRFTISRDNAKNTVYLQMNSLKPEDTAVYYCAAAYADWGQGTQVTVSS | low polyreactivity |
